Experimental data reported in paper PMC9482650, “Quantitative fragmentomics allow affinity mapping of interactomes” (Nature Communications, 2022).
Blank lines part the entries; values can stand above or below the binder they belong to.

What was measured:
Assay in all cases: holdup assay
Parameters in all cases: key: below the threshold = too weak to quantify, mostly under pKd 3.1 to 4
HTRA4, P83105 = molecular target: T1, HTRA4, P83105
T1 sequence (P83105 378-476, limits assumed, looked up): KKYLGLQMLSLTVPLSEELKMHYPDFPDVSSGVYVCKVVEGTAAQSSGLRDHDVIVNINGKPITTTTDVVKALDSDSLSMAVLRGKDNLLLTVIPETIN

GRIP1_2, Q9Y3R0 = molecular target: T2, GRIP1_2, Q9Y3R0
T2 sequence (Q9Y3R0 145-248, limits assumed, looked up): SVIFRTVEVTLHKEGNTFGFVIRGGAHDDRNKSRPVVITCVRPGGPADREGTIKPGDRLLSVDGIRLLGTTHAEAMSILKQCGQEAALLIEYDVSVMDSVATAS

DLG2_2, Q15700 = molecular target: DLG2_2, Q15700
SNTA1, Q13424 = molecular target: T3, SNTA1, Q13424
T3 sequence (Q13424 82-180, limits assumed, looked up): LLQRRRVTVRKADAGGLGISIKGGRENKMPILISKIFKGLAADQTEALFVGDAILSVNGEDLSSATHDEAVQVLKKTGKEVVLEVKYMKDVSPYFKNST

MPP2, Q14168 = molecular target: T4, MPP2, Q14168
T4 sequence (Q14168 180-250, limits assumed, looked up): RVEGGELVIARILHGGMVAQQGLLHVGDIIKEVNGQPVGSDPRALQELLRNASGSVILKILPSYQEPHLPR

FRMPD1, Q5SYB0 = molecular target: T5, FRMPD1, Q5SYB0
T5 sequence (Q5SYB0 52-145, limits assumed, looked up): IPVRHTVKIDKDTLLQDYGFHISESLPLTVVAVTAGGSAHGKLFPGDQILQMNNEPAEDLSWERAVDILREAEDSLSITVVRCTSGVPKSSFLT

MAGI2_4, Q86UL8 = molecular target: MAGI2_4, Q86UL8
GRASP, Q7Z6J2 = molecular target: GRASP, Q7Z6J2
HTRA1, Q92743 = molecular target: HTRA1, Q92743
DLG3_1, Q92796 = molecular target: T6, DLG3_1, Q92796
T6 sequence (Q92796 125-227, limits assumed, looked up): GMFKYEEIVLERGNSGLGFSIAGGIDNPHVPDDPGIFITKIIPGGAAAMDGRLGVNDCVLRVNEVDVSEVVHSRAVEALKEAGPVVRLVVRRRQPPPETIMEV

LIN7A, O14910 = molecular target: T7, LIN7A, O14910
T7 sequence (O14910 103-200, limits assumed, looked up): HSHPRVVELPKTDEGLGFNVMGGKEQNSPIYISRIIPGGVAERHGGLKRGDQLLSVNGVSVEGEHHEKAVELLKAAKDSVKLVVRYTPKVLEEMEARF

APBA1_1, Q02410 = molecular target: T8, APBA1_1, Q02410
T8 sequence (Q02410 651-752, limits assumed, looked up): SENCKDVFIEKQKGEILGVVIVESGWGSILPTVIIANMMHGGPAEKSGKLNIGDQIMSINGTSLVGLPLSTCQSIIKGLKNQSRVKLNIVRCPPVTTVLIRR

APBA2_2, Q99767 = molecular target: T9, APBA2_2, Q99767
T9 sequence (Q99767 654-744, limits assumed, looked up): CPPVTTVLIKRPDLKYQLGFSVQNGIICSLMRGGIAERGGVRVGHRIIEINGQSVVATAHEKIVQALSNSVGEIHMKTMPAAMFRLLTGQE

DFNB31_3, Q9P202 = molecular target: T10, DFNB31_3, Q9P202
T10 sequence (Q9P202 811-907, limits assumed, looked up): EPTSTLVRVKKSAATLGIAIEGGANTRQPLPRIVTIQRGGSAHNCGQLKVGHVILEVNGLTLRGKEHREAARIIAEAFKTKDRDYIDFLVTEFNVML

MAST2, Q6P0Q8 = molecular target: MAST2, Q6P0Q8
MAGI1_1, Q96QZ7 = molecular target: MAGI1_1, Q96QZ7
LNX1_2, Q8TBB1 = molecular target: LNX1_2, Q8TBB1
GORASP2, Q9H8Y8 = molecular target: GORASP2, Q9H8Y8
PARD3B_1, Q8TEW8 = molecular target: T11, PARD3B_1, Q8TEW8
T11 sequence (Q8TEW8 196-299, limits assumed, looked up): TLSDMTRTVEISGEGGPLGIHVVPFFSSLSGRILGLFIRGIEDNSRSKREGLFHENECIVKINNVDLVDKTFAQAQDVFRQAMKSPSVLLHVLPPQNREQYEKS

FRMPD4, Q14CM0 = molecular target: FRMPD4, Q14CM0
MAGI2_6, Q86UL8 = molecular target: MAGI2_6, Q86UL8
DFNB31_2, Q9P202 = molecular target: T12, DFNB31_2, Q9P202
T12 sequence (Q9P202 274-371, limits assumed, looked up): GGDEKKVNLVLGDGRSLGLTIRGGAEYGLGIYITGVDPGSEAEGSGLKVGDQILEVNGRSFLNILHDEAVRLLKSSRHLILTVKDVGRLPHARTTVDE

GRIP2_7, Q9C0E4 = molecular target: GRIP2_7, Q9C0E4
IL16_3, Q14005 = molecular target: IL16_3, Q14005
SCRIB_1, Q14160 = molecular target: SCRIB_1, Q14160
[1] = plain residues with an end cap or a label only (N-terminal biotin on a linker: ttds)
[2] = plain residues with an end cap or a label only (N-terminal biotin on a linker: ado-ado)

FRMPD4, Q14CM0, sequence (Q14CM0 67-160): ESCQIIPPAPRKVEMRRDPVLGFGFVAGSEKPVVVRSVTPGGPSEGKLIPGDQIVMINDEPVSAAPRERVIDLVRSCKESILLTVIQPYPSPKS
DLG2_2, Q15700, sequence (Q15700 189-283): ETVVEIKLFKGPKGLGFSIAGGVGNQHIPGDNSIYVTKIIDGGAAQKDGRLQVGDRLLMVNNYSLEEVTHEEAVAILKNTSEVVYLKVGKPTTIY
MAGI1_1, Q96QZ7, sequence (Q96QZ7 1-106): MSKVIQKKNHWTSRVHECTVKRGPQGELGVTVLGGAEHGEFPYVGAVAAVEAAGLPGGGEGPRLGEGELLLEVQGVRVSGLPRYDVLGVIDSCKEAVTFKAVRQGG
SCRIB_1, Q14160, sequence (Q14160 718-814): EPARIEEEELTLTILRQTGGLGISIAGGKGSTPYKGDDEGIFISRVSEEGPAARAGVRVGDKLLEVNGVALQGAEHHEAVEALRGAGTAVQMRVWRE
GRIP2_7, Q9C0E4, sequence (Q9C0E4 934-1023): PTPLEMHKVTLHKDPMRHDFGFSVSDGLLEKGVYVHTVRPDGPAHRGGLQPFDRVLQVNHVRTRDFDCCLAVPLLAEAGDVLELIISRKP
LNX1_2, Q8TBB1, sequence (Q8TBB1 371-470): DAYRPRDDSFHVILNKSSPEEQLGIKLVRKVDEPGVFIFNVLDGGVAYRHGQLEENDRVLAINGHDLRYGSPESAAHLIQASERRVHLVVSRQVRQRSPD
IL16_3, Q14005, sequence (Q14005 1107-1207): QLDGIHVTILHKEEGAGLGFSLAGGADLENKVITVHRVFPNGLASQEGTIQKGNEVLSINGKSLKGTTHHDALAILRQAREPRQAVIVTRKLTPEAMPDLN
MAST2, Q6P0Q8, sequence (Q6P0Q8 1099-1202): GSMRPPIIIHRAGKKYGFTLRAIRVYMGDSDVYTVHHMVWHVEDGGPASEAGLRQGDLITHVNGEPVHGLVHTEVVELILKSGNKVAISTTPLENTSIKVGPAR
HTRA1, Q92743, sequence (Q92743 360-477): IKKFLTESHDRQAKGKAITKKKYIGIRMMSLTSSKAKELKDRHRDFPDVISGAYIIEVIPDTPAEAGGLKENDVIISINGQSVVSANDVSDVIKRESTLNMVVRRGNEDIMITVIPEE
GRASP, Q7Z6J2, sequence (Q7Z6J2 96-193): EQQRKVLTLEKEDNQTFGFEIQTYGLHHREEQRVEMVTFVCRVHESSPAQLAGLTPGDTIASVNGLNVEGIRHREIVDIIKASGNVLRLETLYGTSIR
MAGI2_4, Q86UL8, sequence (Q86UL8 772-865): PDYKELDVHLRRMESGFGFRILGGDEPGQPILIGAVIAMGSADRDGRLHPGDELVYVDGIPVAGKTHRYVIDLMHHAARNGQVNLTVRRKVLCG
MAGI2_6, Q86UL8, sequence (Q86UL8 1141-1229): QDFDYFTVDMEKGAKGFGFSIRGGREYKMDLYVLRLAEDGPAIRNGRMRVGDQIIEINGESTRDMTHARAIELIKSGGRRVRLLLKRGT

pKd (HTRA4, P83105; [1]): below the threshold | pKd (GRIP1_2, Q9Y3R0; [1]): below the threshold | pKd (DLG2_2, Q15700; [1]): 4.9 | pKd (SNTA1, Q13424; [1]): 5.51 | pKd (MPP2, Q14168; [1]): below the threshold | pKd (FRMPD1, Q5SYB0; [1]): below the threshold | pKd (MAGI2_4, Q86UL8; [1]): below the threshold | pKd (GRASP, Q7Z6J2; [1]): below the threshold | pKd (HTRA1, Q92743; [1]): below the threshold | pKd (DLG3_1, Q92796; [1]): 3.9 | pKd (LIN7A, O14910; [1]): 4.14 | pKd (APBA1_1, Q02410; [1]): below the threshold | pKd (APBA2_2, Q99767; [1]): below the threshold | pKd (DFNB31_3, Q9P202; [1]): below the threshold | pKd (MAST2, Q6P0Q8; [1]): 6.05 | pKd (MAGI1_1, Q96QZ7; [1]): below the threshold | pKd (LNX1_2, Q8TBB1; [1]): below the threshold | pKd (GORASP2, Q9H8Y8; [1]): 3.98 | pKd (PARD3B_1, Q8TEW8; [1]): 3.7 | pKd (FRMPD4, Q14CM0; [1]): 4.35 | pKd (MAGI2_6, Q86UL8; [1]): 4.42 | pKd (DFNB31_2, Q9P202; [1]): 4.36 | pKd (GRIP2_7, Q9C0E4; [1]): below the threshold | pKd (IL16_3, Q14005; [1]): below the threshold | pKd (SCRIB_1, Q14160; [1]): 5.23
Binder: NYWPGKETQL [SLCO1C1, Q9NYB5]

pKd (HTRA4, P83105; [1]): below the threshold | pKd (GRIP1_2, Q9Y3R0; [1]): below the threshold | pKd (DLG2_2, Q15700; [1]): 3.87 | pKd (SNTA1, Q13424; [1]): below the threshold | pKd (MPP2, Q14168; [1]): below the threshold | pKd (FRMPD1, Q5SYB0; [1]): below the threshold | pKd (MAGI2_4, Q86UL8; [1]): 3.74 | pKd (GRASP, Q7Z6J2; [1]): 4.56 | pKd (HTRA1, Q92743; [1]): below the threshold | pKd (DLG3_1, Q92796; [1]): below the threshold | pKd (LIN7A, O14910; [1]): below the threshold | pKd (APBA1_1, Q02410; [1]): below the threshold | pKd (APBA2_2, Q99767; [1]): below the threshold | pKd (DFNB31_3, Q9P202; [1]): below the threshold | pKd (MAST2, Q6P0Q8; [1]): 4.34 | pKd (MAGI1_1, Q96QZ7; [1]): below the threshold | pKd (LNX1_2, Q8TBB1; [1]): 3.61 | pKd (GORASP2, Q9H8Y8; [1]): below the threshold | pKd (PARD3B_1, Q8TEW8; [1]): below the threshold | pKd (FRMPD4, Q14CM0; [1]): below the threshold | pKd (MAGI2_6, Q86UL8; [1]): below the threshold | pKd (DFNB31_2, Q9P202; [1]): below the threshold | pKd (GRIP2_7, Q9C0E4; [1]): below the threshold | pKd (IL16_3, Q14005; [1]): below the threshold | pKd (SCRIB_1, Q14160; [1]): below the threshold
Binder: QPGTPTRTAV [MAP2K2, P36507]

pKd (HTRA4, P83105; [2]): below the threshold | pKd (GRIP1_2, Q9Y3R0; [2]): below the threshold | pKd (DLG2_2, Q15700; [2]): below the threshold | pKd (SNTA1, Q13424; [2]): 3.5 | pKd (MPP2, Q14168; [2]): below the threshold | pKd (FRMPD1, Q5SYB0; [2]): below the threshold | pKd (MAGI2_4, Q86UL8; [2]): 3.57 | pKd (GRASP, Q7Z6J2; [2]): 3.86 | pKd (HTRA1, Q92743; [2]): 3.5 | pKd (DLG3_1, Q92796; [2]): below the threshold | pKd (LIN7A, O14910; [2]): below the threshold | pKd (APBA1_1, Q02410; [2]): below the threshold | pKd (APBA2_2, Q99767; [2]): below the threshold | pKd (DFNB31_3, Q9P202; [2]): below the threshold | pKd (MAST2, Q6P0Q8; [2]): below the threshold | pKd (MAGI1_1, Q96QZ7; [2]): 3.62 | pKd (LNX1_2, Q8TBB1; [2]): 3.47 | pKd (GORASP2, Q9H8Y8; [2]): below the threshold | pKd (PARD3B_1, Q8TEW8; [2]): below the threshold | pKd (FRMPD4, Q14CM0; [2]): 4.09 | pKd (MAGI2_6, Q86UL8; [2]): 3.54 | pKd (DFNB31_2, Q9P202; [2]): below the threshold | pKd (GRIP2_7, Q9C0E4; [2]): 3.59 | pKd (IL16_3, Q14005; [2]): below the threshold | pKd (SCRIB_1, Q14160; [2]): 3.5
Binder: EDLTKNHDEL [RCN1, Q15293]
